Experiment [1] deals with gp120 of HIV-1NL4-3 (on virus particles) (HIV-1 (NL4-3)). The experiment can be described thus: immunoblot with 2G12, band value, 3rd column: Day 12, - MoMo30 by the order of the lanes above. A general note: Immunoblotting shows a protein as a band on a membrane.
Experiment [2] has the same target. The experiment can be described thus: immunoblot with 2G12, band value, 1st column: Day 5, - MoMo30 by the order of the lanes above.
The target is the same in experiment [3]. Kind of experiment: immunoblot with 2G12, band value, 6th column: Day 12, + MoMo30 by the order of the lanes above.
Experiment [4] has the same target. Kind of experiment: immunoblot with 2G12, band value, 4th column: Day 5, + MoMo30 by the order of the lanes above.
For experiment [5] the target is unchanged. Kind of experiment: immunoblot with 2G12, band value, 5th column: Day 8, + MoMo30 by the order of the lanes above.
Experiment [6] shares this target. Kind of experiment: immunoblot with 2G12, band value, 2nd column: Day 8, - MoMo30 by the order of the lanes above.

Data on one substance can be found in patent US20220395548A1.

Turning to “monoclonal antibody 2G12 (AIDS reagent program; cat #1476)”, the gp120 (row of the table under the blot) in experiment [1] stood at 100; in experiment [2] it was 65; in experiment [3] it was 16; in experiment [4], 87; in experiment [5], 51; in experiment [6], 51.
